# Results from IntAct's records for PubMed 31515488.
# B1: "Peptide-N(4)-(N-acetyl-beta-glucosaminyl)asparagine amidase" (Homo sapiens), Q96IV0 (parent)
# chain: MAAAALGSSSGSASPAVAELCQNTPETFLEASKLLLTYADNILRNPNDEKYRSIRIGNTAFSTRLLPVRGAVECLFEMGFEEGETHLIFPKKASVEQLQKIRDLIAIERSSRLDGSNKSHKVKSSQQPAASTQLPTTPSSNPSGLNQHTRNRQGQSSDPPSASTVAADSAILEVLQSNIQHVLVYENPALQEKALACIPVQELKRKSQEKLSRARKLDKGINISDEDFLLLELLHWFKEEFFHWVNNVLCSKCGGQTRSRDRSLLPSDDELKWGAKEVEDHYCDACQFSNRFPRYNNPEKLLETRCGRCGEWANCFTLCCRAVGFEARYVWDYTDHVWTEVYSPSQQRWLHCDACEDVCDKPLLYEIGWGKKLSYVIAFSKDEVVDVTWRYSCKHEEVIARRTKVKEALLRDTINGLNKQRQLFLSENRRKELLQRIIVELVEFISPKTPKPGELGGRISGSVAWRVARGEMGLQRKETLFIPCENEKISKQLHLCYNIVKDRYVRVSNNNQTISGWENGVWKMESIFRKVETDWHMVYLARKEGSSFAYISWKFECGSVGLKVDSISIRTSSQTFQTGTVEWKLRSDTAQVELTGDNSLHSYADFSGATEVILEAELSRGDGDVAWQHTQLFRQSLNDHEENCLEIIIKFSDL
# B2: Seipin (Homo sapiens), Q96G97-4 (parent)
# chain: MSTEKVDQKEEAGEKEVCGDQIKGPDKEEEPPAAASHGQGWRPGGRAARNARPEPGARHPALPAMVNDPPVPALLWAQEVGQVLAGRARRLLLQFGVLFCTILLLLWVSVFLYGSFYYSYMPTVSHLSPVHFYYRTDCDSSTTSLCSFPVANVSLTKGGRDRVLMYGQPYRVTLELELPESPVNQDLGMFLVTISCYTRGGRIISTSSRSVMLHYRSDLLQMLDTLVFSSLLLFGFAEQKQLLEVELYADYRENSYVPTTGAIIEIHSKRIQLYGAYLRIHAHFTGLRYLLYNFPMTCAFIGVASNFTFLSVIVLFSYMQWVWGGIWPRHRFSLQVNIRKRDNSRKEVQRRISAHQPGPEGQEESTPQSDVTEDGESPEDPSGTEGQLSEEEKPDQQPLSGEEELEPEASDGSGSWEDAALLTEANLPAPAPASASAPVLETLGSSEPAGGALRQRPTCSSS
# B3: Pleckstrin homology domain-containing family G member 6 (Homo sapiens), Q3KR16 (parent)
# chain: MKAFGPPHEGPLQGLVASRIETYGGRHRASAQSTAGRLYPRGYPVLDPSRRRLQQYVPFARGSGQARGLSPMRLRDPEPEKRHGGHVGAGLLHSPKLKELTKAHELEVRLHTFSMFGMPRLPPEDRRHWEIGEGGDSGLTIEKSWRELVPGHKEMSQELCHQQEALWELLTTELIYVRKLKIMTDLLAAGLLNLQRVGLLMEVSAETLFGNVPSLIRTHRSFWDEVLGPTLEETRASGQPLDPIGLQSGFLTFGQRFHPYVQYCLRVKQTMAYAREQQETNPLFHAFVQWCEKHKRSGRQMLCDLLIKPHQRITKYPLLLHAVLKRSPEARAQEALNAMIEAVESFLRHINGQVRQGEEQESLAAAAQRIGPYEVLEPPSDEVEKNLRPFSTLDLTSPMLGVASEHTRQLLLEGPVRVKEGREGKLDVYLFLFSDVLLVTKPQRKADKAKVIRPPLMLEKLVCQPLRDPNSFLLIHLTEFQCVSSALLVHCPSPTDRAQWLEKTQQAQAALQKLKAEEYVQQKRELLTLYRDQDRESPSTRPSTPSLEGSQSSAEGRTPEFSTIIPHLVVTEDTDEDAPLVPDDTSDSGYGTLIPGTPTGSRSPLSRLRQRALRRDPRLTFSTLELRDIPLRPHPPDPQAPQRRSAPELPEGILKGGSLPQEDPPTWSEEEDGASERGNVVVETLHRARLRGQLPSSPTHADSAGESPWESSGEEEEEGPLFLKAGHTSLRPMRAEDMLREIREELASQRIEGAEEPRDSRPRKLTRAQLQRMRGPHIIQLDTPLSASEV
# partner: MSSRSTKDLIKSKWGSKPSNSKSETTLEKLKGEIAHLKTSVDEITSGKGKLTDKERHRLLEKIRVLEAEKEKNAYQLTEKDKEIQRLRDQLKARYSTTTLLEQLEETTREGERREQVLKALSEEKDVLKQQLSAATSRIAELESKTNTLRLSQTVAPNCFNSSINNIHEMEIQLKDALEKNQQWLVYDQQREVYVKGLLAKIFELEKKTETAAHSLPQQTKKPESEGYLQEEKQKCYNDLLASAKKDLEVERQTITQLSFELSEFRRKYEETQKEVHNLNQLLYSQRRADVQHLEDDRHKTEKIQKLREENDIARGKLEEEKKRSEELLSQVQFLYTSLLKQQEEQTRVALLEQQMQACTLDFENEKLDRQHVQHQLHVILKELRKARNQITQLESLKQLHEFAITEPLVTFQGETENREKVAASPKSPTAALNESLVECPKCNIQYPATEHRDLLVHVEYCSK
# B4: Proteasome subunit beta type-1 (Homo sapiens), P20618 (parent)
# chain: MLSSTAMYSAPGRDLGMEPHRAAGPLQLRFSPYVFNGGTILAIAGEDFAIVASDTRLSEGFSIHTRDSPKCYKLTDKTVIGCSGFHGDCLTLTKIIEARLKMYKHSNNKAMTTGAIAAMLSTILYSRRFFPYYVYNIIGGLDEEGKGAVYSFDPVGSYQRDSFKAGGSASAMLQPLLDNQVGFKNMQNVEHVPLSLDRAMRLVKDVFISAAERDVYTGDALRICIVTKEGIREETVSLRKD
# partner: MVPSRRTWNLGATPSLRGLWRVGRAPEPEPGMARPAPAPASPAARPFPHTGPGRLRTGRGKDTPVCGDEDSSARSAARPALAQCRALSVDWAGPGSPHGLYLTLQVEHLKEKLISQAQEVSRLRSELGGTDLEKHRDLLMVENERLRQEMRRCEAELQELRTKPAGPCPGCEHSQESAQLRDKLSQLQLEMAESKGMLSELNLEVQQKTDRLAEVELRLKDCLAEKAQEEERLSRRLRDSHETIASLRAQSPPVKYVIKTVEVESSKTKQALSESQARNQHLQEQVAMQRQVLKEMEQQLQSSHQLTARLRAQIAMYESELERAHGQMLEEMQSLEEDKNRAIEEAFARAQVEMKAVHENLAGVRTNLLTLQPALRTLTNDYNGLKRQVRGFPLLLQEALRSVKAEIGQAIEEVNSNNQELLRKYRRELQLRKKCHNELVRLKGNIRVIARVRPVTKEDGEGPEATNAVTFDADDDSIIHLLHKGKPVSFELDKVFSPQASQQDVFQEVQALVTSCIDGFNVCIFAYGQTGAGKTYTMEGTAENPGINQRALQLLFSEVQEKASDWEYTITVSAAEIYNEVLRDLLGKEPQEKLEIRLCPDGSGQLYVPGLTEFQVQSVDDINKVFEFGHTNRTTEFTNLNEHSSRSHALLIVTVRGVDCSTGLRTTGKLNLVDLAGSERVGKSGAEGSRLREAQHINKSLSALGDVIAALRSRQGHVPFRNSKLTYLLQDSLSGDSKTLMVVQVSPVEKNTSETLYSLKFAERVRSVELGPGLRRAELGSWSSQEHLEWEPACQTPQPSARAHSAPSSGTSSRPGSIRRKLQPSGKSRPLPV
# B5: Serine/threonine-protein kinase PAK 5 (Homo sapiens), Q9P286 (parent)
# chain: MFGKKKKKIEISGPSNFEHRVHTGFDPQEQKFTGLPQQWHSLLADTANRPKPMVDPSCITPIQLAPMKTIVRGNKPCKETSINGLLEDFDNISVTRSNSLRKESPPTPDQGASSHGPGHAEENGFITFSQYSSESDTTADYTTEKYREKSLYGDDLDPYYRGSHAAKQNGHVMKMKHGEAYYSEVKPLKSDFARFSADYHSHLDSLSKPSEYSDLKWEYQRASSSSPLDYSFQFTPSRTAGTSGCSKESLAYSESEWGPSLDDYDRRPKSSYLNQTSPQPTMRQRSRSGSGLQEPMMPFGASAFKTHPQGHSYNSYTYPRLSEPTMCIPKVDYDRAQMVLSPPLSGSDTYPRGPAKLPQSQSKSGYSSSSHQYPSGYHKATLYHHPSLQSSSQYISTASYLSSLSLSSSTYPPPSWGSSSDQQPSRVSHEQFRAALQLVVSPGDPREYLANFIKIGEGSTGIVCIATEKHTGKQVAVKKMDLRKQQRRELLFNEVVIMRDYHHDNVVDMYSSYLVGDELWVVMEFLEGGALTDIVTHTRMNEEQIATVCLSVLRALSYLHNQGVIHRDIKSDSILLTSDGRIKLSDFGFCAQVSKEVPKRKSLVGTPYWMAPEVISRLPYGTEVDIWSLGIMVIEMIDGEPPYFNEPPLQAMRRIRDSLPPRVKDLHKVSSVLRGFLDLMLVREPSQRATAQELLGHPFLKLAGPPSCIVPLMRQYRHH
# partner: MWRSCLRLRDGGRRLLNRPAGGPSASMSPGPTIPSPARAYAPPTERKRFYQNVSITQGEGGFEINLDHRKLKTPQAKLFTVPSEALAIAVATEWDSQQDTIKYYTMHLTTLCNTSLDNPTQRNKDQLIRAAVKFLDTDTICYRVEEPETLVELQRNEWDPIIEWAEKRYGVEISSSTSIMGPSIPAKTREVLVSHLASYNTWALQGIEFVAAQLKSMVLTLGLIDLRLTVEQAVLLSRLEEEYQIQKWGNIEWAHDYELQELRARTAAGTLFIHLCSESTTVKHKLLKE
# B6: Spermatogenesis-associated protein 2 (Homo sapiens), Q9UM82 (parent)
# chain: MGKPSSMDTKFKDDLFRKYVQFHESKVDTTTSRQRPGSDECLRVAASTLLSLHKVDPFYRFRLIQFYEVVESSLRSLSSSSLRALHGAFSMLETVGINLFLYPWKKEFRSIKTYTGPFVYYVKSTLLEEDIRAILSCMGYTPELGTAYKLRELVETLQVKMVSFELFLAKVECEQMLEIHSQVKDKGYSELDIVSERKSSAEDVRGCSDALRRRAEGREHLTASMSRVALQKSASERAAKDYYKPRVTKPSRSVDAYDSYWESRKPPLKASLSLRKEPVATDVGDDLKDEIIRPSPSLLTMASSPHGSPDVLPPASPSNGPALLRGTYFSTQDDVDLYTDSEPRATYRRQDALRPDVWLLRNDAHSLYHKRSPPAKESALSKCQSCGLSCSSSLCQRCDSLLTCPPASKPSAFPSKASTHDSLAHGASLREKYPGQTQGLDRLPHLHSKSKPSTTPTSRCGFCNRPGATNTCTQCSKVSCDACLSAYHYDPCYKKSELHKFMPNNQLNYKSTQLSHLVYR
# partner: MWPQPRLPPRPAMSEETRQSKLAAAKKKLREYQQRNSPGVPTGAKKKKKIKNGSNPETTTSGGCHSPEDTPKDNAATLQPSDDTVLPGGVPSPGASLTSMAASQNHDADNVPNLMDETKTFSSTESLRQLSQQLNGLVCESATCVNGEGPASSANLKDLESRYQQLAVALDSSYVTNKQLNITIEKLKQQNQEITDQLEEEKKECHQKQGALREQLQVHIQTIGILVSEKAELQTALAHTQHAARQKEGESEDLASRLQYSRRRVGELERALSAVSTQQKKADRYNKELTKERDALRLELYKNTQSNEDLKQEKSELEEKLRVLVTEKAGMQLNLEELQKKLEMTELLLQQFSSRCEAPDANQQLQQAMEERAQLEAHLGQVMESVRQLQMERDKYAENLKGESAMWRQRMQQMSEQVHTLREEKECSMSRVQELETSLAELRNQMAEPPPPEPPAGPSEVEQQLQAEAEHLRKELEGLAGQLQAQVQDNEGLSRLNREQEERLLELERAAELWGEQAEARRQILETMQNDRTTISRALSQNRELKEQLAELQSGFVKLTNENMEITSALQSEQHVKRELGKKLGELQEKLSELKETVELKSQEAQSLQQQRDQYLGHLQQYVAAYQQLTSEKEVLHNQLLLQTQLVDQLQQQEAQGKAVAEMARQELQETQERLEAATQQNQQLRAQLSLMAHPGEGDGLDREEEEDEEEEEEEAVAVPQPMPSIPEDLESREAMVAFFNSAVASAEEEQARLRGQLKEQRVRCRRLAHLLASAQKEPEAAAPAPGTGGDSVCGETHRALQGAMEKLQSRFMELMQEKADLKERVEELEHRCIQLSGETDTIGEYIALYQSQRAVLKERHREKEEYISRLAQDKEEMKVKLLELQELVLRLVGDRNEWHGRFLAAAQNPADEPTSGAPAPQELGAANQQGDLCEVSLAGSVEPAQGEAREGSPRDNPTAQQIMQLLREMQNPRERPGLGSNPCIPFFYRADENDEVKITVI
# B7: Serine/threonine-protein phosphatase 2A activator (Homo sapiens), Q15257 (parent)
# chain: MAEGERQPPPDSSEEAPPATQNFIIPKKEIHTVPDMGKWKRSQAYADYIGFILTLNEGVKGKKLTFEYRVSEMWNEVHEEKEQAAKQSVSCDECIPLPRAGHCAPSEAIEKLVALLNTLDRWIDETPPVDQPSRFGNKAYRTWYAKLDEEAENLVATVVPTHLAAAVPEVAVYLKESVGNSTRIDYGTGHEAAFAAFLCCLCKIGVLRVDDQIAIVFKVFNRYLEVMRKLQKTYRMEPAGSQGVWGLDDFQFLPFIWGSSQLIDHPYLEPRHFVDEKAVNENHKDYMFLECILFITEMKTGPFAEHSNQLWNISAVPSWSKVNQGLIRMYKAECLEKFPVIQHFKFGSLLPIHPVTSG
# Variants of: B1
# Details: with ubql1_human UBQLN1, Q9UMX0
# Chain of ubql1_human UBQLN1, Q9UMX0 (Q9UMX0 whole entry): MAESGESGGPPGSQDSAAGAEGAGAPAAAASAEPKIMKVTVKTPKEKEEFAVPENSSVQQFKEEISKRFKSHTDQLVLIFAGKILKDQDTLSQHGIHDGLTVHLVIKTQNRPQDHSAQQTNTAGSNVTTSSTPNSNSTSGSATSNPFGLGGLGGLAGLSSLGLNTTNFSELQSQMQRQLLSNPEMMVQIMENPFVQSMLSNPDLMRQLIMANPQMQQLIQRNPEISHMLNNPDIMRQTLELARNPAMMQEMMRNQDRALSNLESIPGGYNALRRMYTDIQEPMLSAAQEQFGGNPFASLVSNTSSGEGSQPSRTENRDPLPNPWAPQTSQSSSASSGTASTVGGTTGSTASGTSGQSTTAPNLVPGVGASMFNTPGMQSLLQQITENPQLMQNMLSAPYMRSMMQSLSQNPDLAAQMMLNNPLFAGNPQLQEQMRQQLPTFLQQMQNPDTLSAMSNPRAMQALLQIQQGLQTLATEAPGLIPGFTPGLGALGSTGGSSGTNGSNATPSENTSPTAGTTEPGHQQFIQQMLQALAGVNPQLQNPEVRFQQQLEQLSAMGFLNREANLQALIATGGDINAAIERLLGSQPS
row,effect of a mutation on the interaction,Variant
1,with no effect,F292L

# Variants of: B1
# Details: with trad1_human TRAFD1, O14545
# Chain of trad1_human TRAFD1, O14545 (O14545 whole entry): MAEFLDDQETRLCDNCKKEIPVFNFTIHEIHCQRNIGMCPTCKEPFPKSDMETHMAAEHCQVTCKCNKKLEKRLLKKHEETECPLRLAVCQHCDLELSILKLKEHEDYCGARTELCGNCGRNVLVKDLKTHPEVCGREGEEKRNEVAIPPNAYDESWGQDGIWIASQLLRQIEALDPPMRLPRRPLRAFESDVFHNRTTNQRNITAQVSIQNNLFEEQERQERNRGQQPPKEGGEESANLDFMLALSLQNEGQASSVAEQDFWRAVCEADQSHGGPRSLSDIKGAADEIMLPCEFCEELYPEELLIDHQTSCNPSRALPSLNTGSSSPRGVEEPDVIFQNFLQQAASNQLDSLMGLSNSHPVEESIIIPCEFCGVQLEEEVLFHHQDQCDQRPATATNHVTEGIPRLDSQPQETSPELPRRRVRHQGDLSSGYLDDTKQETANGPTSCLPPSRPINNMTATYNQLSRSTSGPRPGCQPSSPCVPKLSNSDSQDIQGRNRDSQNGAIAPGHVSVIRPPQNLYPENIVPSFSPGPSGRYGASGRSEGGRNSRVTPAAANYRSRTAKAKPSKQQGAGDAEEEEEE
row,effect of a mutation on the interaction,Variant
1,with no effect,F292L

# Variants of: B2
# Details: with bscl2_human BSCL2, Q96G97
row,effect of a mutation on the interaction,Variant
1,with no effect,D20E

# Variants of: B2
# Details: with tmm19_human TMEM19, Q96HH6
# Chain of tmm19_human TMEM19, Q96HH6 (Q96HH6 whole entry): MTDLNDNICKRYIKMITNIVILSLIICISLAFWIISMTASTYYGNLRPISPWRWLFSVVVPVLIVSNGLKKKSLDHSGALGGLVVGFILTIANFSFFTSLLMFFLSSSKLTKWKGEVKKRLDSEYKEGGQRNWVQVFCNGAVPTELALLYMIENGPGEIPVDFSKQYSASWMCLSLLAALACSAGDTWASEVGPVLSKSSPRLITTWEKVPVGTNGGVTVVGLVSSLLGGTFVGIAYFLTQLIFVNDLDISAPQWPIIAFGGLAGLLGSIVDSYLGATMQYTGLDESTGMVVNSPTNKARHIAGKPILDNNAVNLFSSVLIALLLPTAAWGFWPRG
row,effect of a mutation on the interaction,Variant
1,with no effect,D20E

# Variants of: B3
# Details: with cep55_human CEP55, Q53EZ4
row,effect of a mutation on the interaction,Variant
1,with no effect,P542S
2,with no effect,R627W
3,with no effect,R763Q

# Variants of: B4
# Details: with kifc3_human KIFC3, Q9BVG8
row,effect of a mutation on the interaction,Variant
1,with no effect,P11A

# Variants of: B5
# Details: with atpf2_human ATPAF2, Q8N5M1
row,effect of a mutation on the interaction,Variant
1,with no effect,R335P

# Variants of: B6
# Details: with goga2_human GOLGA2, Q08379
row,effect of a mutation on the interaction,Variant
1,with no effect,L443F

# Variants of: B7
# Details: with amot_human AMOT
row,effect of a mutation on the interaction,Variant
1,with no effect,K218T
